± gives the uncertainty stated by the source.
Assay: self-splicing fitness, log relative to wild type (ln ratio); higher = more splicing; Tetrahymena group I intron in knt gene, E. coli kanamycin selection, DiMSum; sequences stand for … in CUCUCU…GGAGGGAAAAGUUAUCAGGCAUGCACCUGGUAGCUAGUCUUUAAACCAAUAGAUUGCAUCGGUUUAAAAGGCAAGACCGUCAAAUUGCGGGAAAGGGGUCAACAGCCGUUCAGUACCAAGUCUCAGGGGAAACUUUGAGAUGGCCUUGCAAAGGGUAUGGUAAUAAGCUGACGGACAUGGUCCUAACCACGCAGCCAAGUCCUAAGUCAACAGAUCUUCUGUUGAUAUGGAUGCAGUUCACAGACUAAAUGUCGGUCGGGGAAGAUGUAUUCUUCUCAUAAGAUAUAGUCGGACCUCUCCUUAAUGGGAGCUAGCGGAUGAAGUGAUGCAACACUGGAGCCGCUGGGAACUAAUUUGUAUGCGAAAGUAUAUUGAUUAGUUUUGGAGUACUCGUGGUCG
Procedure, shortened: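 Six replicate transformations of E. coli BL21(DE3) with a pET-22b(+) library were grown overnight at 37°C or 30°C. The library randomised all eight P1ex-region intron nucleotides, the intron lying in the knt kanamycin-resistance gene, and plates were LB agar with or without 25 μg/mL kanamycin plus 100 μg/mL carbenicillin, 50 μM IPTG and 0.2% rhamnose. Pooled colonies were amplicon-sequenced on an Illumina HiSeq 2500, and fitness is the DiMSum error-weighted combination of wild-type-normalised replicate fold changes, kanamycin versus none.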

| Sequence | self-splicing fitness (ln) (30 °C) | self-splicing fitness (ln) (37 °C) |
| --- | --- | --- |
| GAACAGCAAUAUUACGCCUA | -1.42 ± 0.086 | -0.336 ± 0.087 |
| UACUAGCAAUAUUACGUGUA | -3.12 ± 0.28 | -0.943 ± 0.14 |
| CAGCAGCAAUAUUACGUGAA | -2.06 ± 0.075 | -0.955 ± 0.09 |
| AUCGAGCAAUAUUACGAAAA | -3.6 ± 0.39 | -2.1 ± 0.32 |
| GGUAAGCAAUAUUACGGAAA | -3.13 ± 0.35 | -0.547 ± 0.16 |
| CAGGAGCAAUAUUACGGACG | -0.757 ± 0.1 | -0.376 ± 0.11 |
| AACCAGCAAUAUUACGUGAA | -0.843 ± 0.074 | -0.516 ± 0.087 |
| UUGCAGCAAUAUUACGGAGU | -4.51 ± 0.42 | -2.44 ± 0.2 |
| ACUUAGCAAUAUUACGAAGA | -1.69 ± 0.12 | -1.24 ± 0.14 |
| UCGCAGCAAUAUUACGUGGG | -4.4 ± 0.36 | -2.53 ± 0.14 |
| AUAUAGCAAUAUUACGAGGU | -3.66 ± 0.26 | -1.44 ± 0.15 |
| AAACAGCAAUAUUACGGCGA | -0.923 ± 0.074 | -0.737 ± 0.085 |
| UUAAAGCAAUAUUACGUAUU | -3.28 ± 0.15 | -2.75 ± 0.2 |
| UACGAGCAAUAUUACGCUCG | – | -1.74 ± 0.31 |
| AUGCAGCAAUAUUACGAGAG | -4.15 ± 0.27 | -1.16 ± 0.12 |
| AGGAAGCAAUAUUACGACAC | -1.94 ± 0.12 | -1.74 ± 0.12 |
| UCGCAGCAAUAUUACGCUCA | -1.37 ± 0.085 | -0.529 ± 0.091 |
| CCGAAGCAAUAUUACGGAAC | -2.82 ± 0.28 | -2.03 ± 0.26 |
| GGCGAGCAAUAUUACGUUAA | -2.51 ± 0.19 | -1.4 ± 0.2 |
| CUCAAGCAAUAUUACGUCUC | -4.33 ± 0.39 | -0.263 ± 0.2 |
| GUAAAGCAAUAUUACGUAUA | -1.53 ± 0.11 | -0.524 ± 0.14 |
| ACGCAGCAAUAUUACGAACU | -0.619 ± 0.062 | -0.501 ± 0.081 |
| AUGCAGCAAUAUUACGAUUU | -0.306 ± 0.058 | -0.153 ± 0.074 |
| CUUCAGCAAUAUUACGGCUC | -3.8 ± 0.37 | -2.51 ± 0.35 |
| AUGCAGCAAUAUUACGCUUC | -4.78 ± 0.34 | -3.07 ± 0.34 |
| CGUAAGCAAUAUUACGACUU | -3.09 ± 0.23 | -1.35 ± 0.22 |

| Sequence | self-splicing fitness (ln) (30 °C) | self-splicing fitness (ln) (37 °C) |
| --- | --- | --- |
| CUCUAGCAAUAUUACGGGAC | -2.77 ± 0.19 | -3.65 ± 0.46 |
| GCUAAGCAAUAUUACGAACC | -0.414 ± 0.15 | 1.05 ± 0.23 |
| CACGAGCAAUAUUACGUGAU | -3.91 ± 0.14 | -2.05 ± 0.14 |
| UGCGAGCAAUAUUACGCCGG | -3.39 ± 0.34 | – |
| GUAUAGCAAUAUUACGGCCU | -1.29 ± 0.12 | -0.582 ± 0.16 |
| CCGCAGCAAUAUUACGCAGG | -2.77 ± 0.11 | -2.93 ± 0.2 |
| UUGGAGCAAUAUUACGAGGA | -3.13 ± 0.48 | -1.56 ± 0.27 |
| AGGCAGCAAUAUUACGAGUG | -3.63 ± 0.28 | -1.96 ± 0.18 |
| CGACAGCAAUAUUACGAUGG | -0.855 ± 0.072 | -0.172 ± 0.094 |
| UUUAAGCAAUAUUACGAUUA | -0.637 ± 0.1 | -0.207 ± 0.11 |
| GGGGAGCAAUAUUACGCUUA | -1.04 ± 0.2 | -1.1 ± 0.27 |
| GUUAAGCAAUAUUACGUACA | -1.04 ± 0.11 | -0.694 ± 0.16 |
| CUCUAGCAAUAUUACGGGUC | -5.03 ± 0.34 | -2.21 ± 0.18 |
| AUGCAGCAAUAUUACGCGUG | -3.92 ± 0.17 | -2.59 ± 0.18 |
| CUCGAGCAAUAUUACGUAGG | -1.11 ± 0.11 | -0.804 ± 0.15 |
| UCCAAGCAAUAUUACGAACA | -1.87 ± 0.14 | -0.969 ± 0.13 |
| CGACAGCAAUAUUACGGCAG | -0.376 ± 0.083 | 0.289 ± 0.094 |
| ACGAAGCAAUAUUACGUGGU | -3.5 ± 0.16 | -2.95 ± 0.15 |
| CCCUAGCAAUAUUACGAUGG | -3.91 ± 0.2 | -1.79 ± 0.15 |
| UAAGAGCAAUAUUACGCCUG | -2.17 ± 0.15 | -0.85 ± 0.2 |
| GGUCAGCAAUAUUACGGAAA | -1.22 ± 0.11 | -0.845 ± 0.11 |
| AAGCAGCAAUAUUACGCCCU | -0.309 ± 0.14 | 0.0798 ± 0.18 |
| GGUGAGCAAUAUUACGGUGU | -3.9 ± 0.36 | -2.05 ± 0.31 |
| CGUCAGCAAUAUUACGGGAA | -3.68 ± 0.43 | -1.18 ± 0.18 |
| AAUGAGCAAUAUUACGGGAC | -2.96 ± 0.26 | -1.36 ± 0.25 |
| UAACAGCAAUAUUACGCAAG | -2.08 ± 0.078 | -2.23 ± 0.074 |

| Sequence | self-splicing fitness (ln) (30 °C) | self-splicing fitness (ln) (37 °C) |
| --- | --- | --- |
| GUUUAGCAAUAUUACGAUAC | -1.44 ± 0.18 | -0.147 ± 0.28 |
| GUGUAGCAAUAUUACGGUCC | -1.7 ± 0.23 | -0.716 ± 0.25 |
| UAAGAGCAAUAUUACGGCCG | -1.79 ± 0.14 | -0.743 ± 0.2 |
| AGUCAGCAAUAUUACGAUGG | -1.55 ± 0.062 | -0.364 ± 0.083 |
| CGAAAGCAAUAUUACGAGGC | -3.72 ± 0.2 | -1.88 ± 0.21 |
| AGAGAGCAAUAUUACGUCGG | -2.92 ± 0.25 | -2.2 ± 0.26 |
| GCGAAGCAAUAUUACGGCAU | -1.25 ± 0.099 | -0.00655 ± 0.089 |
| GCAAAGCAAUAUUACGGAGU | -3.58 ± 0.17 | -2.42 ± 0.21 |
| UGGCAGCAAUAUUACGAAAG | -2.17 ± 0.14 | -1.19 ± 0.13 |
| GACGAGCAAUAUUACGAAAA | – | -3.07 ± 0.37 |
| GCUGAGCAAUAUUACGUAAU | -3.77 ± 0.24 | -1.29 ± 0.14 |
| CGAAAGCAAUAUUACGUUAC | -3.15 ± 0.18 | -3.01 ± 0.26 |
| AACCAGCAAUAUUACGGGGG | -2.43 ± 0.095 | -1.02 ± 0.091 |
| AAGAAGCAAUAUUACGGUAU | -2.08 ± 0.073 | -0.974 ± 0.084 |
| AAGCAGCAAUAUUACGAGGU | -3.55 ± 0.16 | -2.65 ± 0.19 |
| GGCAAGCAAUAUUACGUCAA | -1.84 ± 0.14 | -0.756 ± 0.12 |
| AGCCAGCAAUAUUACGCCAA | -3.36 ± 0.19 | -1.75 ± 0.17 |
| GCGUAGCAAUAUUACGCGGC | -2.64 ± 0.27 | -2.08 ± 0.46 |
| UGCCAGCAAUAUUACGGAUU | -1.67 ± 0.068 | -0.242 ± 0.074 |
| UCGCAGCAAUAUUACGAUCU | -1.17 ± 0.21 | -2.57 ± 0.21 |
| CAUCAGCAAUAUUACGCCUC | – | -1.57 ± 0.24 |
| CUAUAGCAAUAUUACGUGUC | -4.02 ± 0.24 | -3.09 ± 0.27 |
| GACUAGCAAUAUUACGGUUA | -0.116 ± 0.083 | 0.109 ± 0.085 |
| GCCCAGCAAUAUUACGAGAC | -2.15 ± 0.093 | -0.787 ± 0.085 |
| ACGAAGCAAUAUUACGGGUA | -1.72 ± 0.25 | -2.08 ± 0.17 |

Reference: the supplement of paper PMC7877785
